Assay results as given in patent publication US20190330277A1 (PIRBRIGHT INSTITUTE, published 2019).

Key:
Assay in all cases: biolayer interferometry (Octet), variant on Ni-NTA tip, Fab in solution
[1] = target: bRSV 391-2 sc9-10 DS-Cav1 Q98C-Q361C (bovine respiratory syncytial virus, …)
[2] = target: bRSV 391-2 DSCav1 (bovine respiratory syncytial virus, …, UniProt P22167 26-109)
[3] = target: bRSV 391-2 sc9 DS-Cav1 Q98C-Q361C (bovine respiratory syncytial virus, …)
[4] = target: bRSV ATue51908 DSCav1 (bovine respiratory syncytial virus, …, UniProt P22167 26-109)
[5] = target: bRSV ATue51908 postF (bovine respiratory syncytial virus, …, UniProt P22167 26-109; P22167 147-513)
[6] = target: bRSV RB94 postF (bovine respiratory syncytial virus, …, UniProt P23728 26-109; P23728 147-513)
[7] = target: bRSV ATue51908 sc9-10 DS-Cav1 A149C-Y458C (bovine respiratory syncytial virus, …)
[8] = target: bRSV 391-2 postF (bovine respiratory syncytial virus, …, UniProt P22167 26-109; P22167 147-513)

Row | Binder | Kd [1] | Kd [2] | Kd [3] | Kd [4] | Kd [5] | Kd [6] | Kd [7] | Kd [8]
1 | AM14 Fab (Fab, V domains shown, also called mAb AM14) VH: EVQLVESGGGVVQPGRSLRLSCAASGFSFSHYAMHWVRQAPGKGLEWVAVISYDGENTYYADSVKGRFSISRDNSKNTVSLQMNSLRPEDTALYYCARDRIVDDYYYYGMDVWGQGATVTVSS VL: DIQMTQSPSSLSASVGDRVTITCQASQDIKKYLNWYHQKPGKVPELLMHDASNLETGVPSRFSGRGSGTDFTLTISSLQPEDIGTYYCQQYDNLPPLTFGGGTKVEIKR | 12.8 nM | 1.8 nM | 8.6 nM | 4.8 nM | > 1000 nM | > 1000 nM | 12.8 nM | > 1000 nM
2 | MPE8 Fab (Fab, V domains shown, also called mAb MPE8) VH: EVQLVESGGGLVKPGGSLRLSCAASGFTFSSYSMNWVRQAPGKGLEWVSSISASSSYSDYADSAKGRFTISRDNAKTSLFLQMNSLRAEDTAIYFCARARATGYSSITPYFDIWGQGTLVTVSS VL: QSVVTQTPSVSGAPGQRVTISCTGSSSNIGAGYDVHWYQQLPGTAPKLLIYDNNNRPSGVPDRFSASKSGTSASLAITGLQAEDEADYYCQSYDRNLSGVFGTGTKVTVL | – | – | – | – | – | > 1000 nM | – | > 1000 nM
3 | D25 Fab (Fab, V domains shown, also called mAb D25) VH: QVQLVQSGAEVKKPGSSVMVSCQASGGPLRNYIINWLRQAPGQGPEWMGGIIPVLGTVHYAPKFQGRVTITADESTDTAYIHLISLRSEDTAMYYCATETALVVSTTYLPHYFDNWGQGTLVTVSS VL: DIQMTQSPSSLSAAVGDRVTITCQASQDIVNYLNWYQQKPGKAPKLLIYVASNLETGVPSRFSGSGSGTDFSLTISSLQPEDVATYYCQQYDNLPLTFGGGTKVEIK | – | – | – | 10.8 nM | – | – | 420 nM | –
